Experimental data from publication PMC12038257, “The transcription factor MdWRKY9 is involved in jasmonic acid-mediated salt stress tolerance in apple”.
Changes are numbered by the printed parent chain.

B1: MdNHX1 W-box W1 (-1255) (dsDNA)
DNA 1: ATCATATTTTTACACTAAAAAGTCAATCTTGGTACTATTTATCTTA
DNA 2: TAAGATAAATAGTACCAAGATTGACTTTTTAGTGTAAAAATATGAT
B2: MdNHX1 W1 mutant probe (dsDNA)
DNA 1: B1 DNA 1 with T23G, C24A
DNA 2: B1 DNA 2 with G23T, A24C
B3: MdSOS3 W-box probe 1 (W4, -127) (dsDNA)
DNA 1: TAGTGAAGCACATCCGCTCTAGTCAAAGCAGCTACGCTCACGCGTG
DNA 2: CACGCGTGAGCGTAGCTGCTTTGACTAGAGCGGATGTGCTTCACTA
B4: MdSOS2 W-box W3 (-303), probe 2 (dsDNA)
DNA 1: TATGAAAACTGGAACTTGGGTTGACTGAATTTACTTCTAATTTCAT
DNA 2: ATGAAATTAGAAGTAAATTCAGTCAACCCAAGTTCCAGTTTTCATA
B5: MdSOS2 W3 mutant probe (dsDNA)
DNA 1: B4 DNA 1 with G23T, A24C
DNA 2: B4 DNA 2 with T23G, C24A
B6: MdSOS2 W-box W2 (-149), probe 1 (dsDNA)
DNA 1: TCACAGCCACGTGAATTGAATTGACCAATTTTCCAATTCTGTTTAT
DNA 2: ATAAACAGAATTGGAAAATTGGTCAATTCAATTCACGTGGCTGTGA
B7: MdSOS2 W2 mutant probe (dsDNA)
DNA 1: B6 DNA 1 with G23T, A24C
DNA 2: B6 DNA 2 with T23G, C24A

These binders were tested against MdWRKY9 (Malus domestica (apple)?, UniProt D9ZJG3 1-520) (assay: EMSA; EMSA buffer, salt, pH and temperature not given (refers to earlier method, ref. 35); GST added to equalize protein in JAZ assays). Settings: protein: recombinant; tags: His (pET32a(+)); label: 3' biotin; blunt.
Sequence of MdWRKY9 (D9ZJG3 entry or part of it): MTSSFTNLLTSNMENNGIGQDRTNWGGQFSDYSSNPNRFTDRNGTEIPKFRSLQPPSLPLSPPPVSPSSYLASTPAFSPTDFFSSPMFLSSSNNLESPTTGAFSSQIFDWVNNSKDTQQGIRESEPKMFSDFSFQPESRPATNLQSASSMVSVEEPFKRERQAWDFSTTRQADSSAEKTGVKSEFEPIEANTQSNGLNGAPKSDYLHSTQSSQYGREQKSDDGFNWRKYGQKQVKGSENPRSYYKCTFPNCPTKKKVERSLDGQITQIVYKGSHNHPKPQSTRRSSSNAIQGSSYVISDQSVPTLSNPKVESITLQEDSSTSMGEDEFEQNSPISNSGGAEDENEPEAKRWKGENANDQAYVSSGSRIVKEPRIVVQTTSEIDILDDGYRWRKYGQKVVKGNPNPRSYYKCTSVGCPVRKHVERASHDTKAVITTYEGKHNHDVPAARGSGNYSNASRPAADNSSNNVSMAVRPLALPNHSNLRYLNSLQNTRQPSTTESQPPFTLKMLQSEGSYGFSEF

Binder	binding result
B1	binds
B2	no binding
B3	no binding
B4	binds
B5	no binding
B6	binds
B7	no binding
